We go through 19 molecules from patent US20220089698A1 (published 2022).

Where a chain is given by its changes, count along the chain named.

One assay deals with HIV gp120 Bal (HIV). Kind of assay: single-point ELISA. Further: test concentration or dose not given here.
The next assay has as its target HIV gp120 CAAN (HIV). Kind of assay: single-point ELISA. Further: test concentration or dose not given here.

B1: 1.1.36-1 (antibody, human IgG1, kappa)
heavy: QVQLLQSGAAVTKPGASVRVSCEASGYNIRDYFIHWWRQAPGQGLQWVGWINPKTGQPNNPRQFQGRVSLTRHASWDFDTFSFYMDLKALRSDDTAVYFCARQRSDYWDFDVWGSGTQVTVSSASTKGPSVFPLAPSSKSTSGGTAALGCLVKDYFPEPVTVSWNSGALTSGVHTFPAVLQSSGLYSLSSVVTVPSSSLGTQTYICNVNHKPSNTKVDKKVEPKSCDKTHTCPPCPAPELLAGPDVFLFPPKPKDTLMISRTPEVTCVVVDVSHEDPEVKFNWYVDGVEVHNAKTKPREEQYNSTYRVVSVLTVLHQDWLNGKEYKCKVSNKALPLPEEKTISKAKGQPREPQVYTLPPSREEMTKNQVSLTCLVKGFYPSDIAVEWESNGQPENNYKTTPPVLDSDGSFFLYSKLTVDKSRWQQGNVFSCSVLHEALHSHYTQKSLSLSPGK
light: DIQMTQSPSSLSASVGDRVTITCQANGYLNWYQQKPGKAPKLLIYDGSNLETGVPSRFSGSRWGQEYTLTISSLQPEDIATYFCQVYEFVTPGTNLDIKRTVAAPSVFIFPPSDEQLKSGTASVVCLLNNFYPREAKVQWKVDNALQSGNSQESVTEQDSKDSTYSLSSTLTLSKADYEKHKVYACEVTHQGLSSPVTKSFNRGEC
For the molecule B1, the “ELISA (A450)” value in the assay with HIV gp120 Bal worked out at 0.93 A450; with HIV gp120 CAAN it was 0.88 A450.

B2: Antibody A-1 (antibody, human IgG1, kappa)
heavy: B1 heavy
light: DIQMTQSPSSLSASVGDTVTITCQANGYLNWYQQRRGKAPKLLIYDGSKLERGVPSRFSGRRWGQEYNLTINNLQPEDIATYFCQVYEFVVPGTRLDLKRTVAAPSVFIFPPSDEQLKSGTASVVCLLNNFYPREAKVQWKVDNALQSGNSQESVTEQDSKDSTYSLSSTLTLSKADYEKHKVYACEVTHQGLSSPVTKSFNRGEC
For B2, the “ELISA (A450)” value in the assay with HIV gp120 Bal was 0.91 A450; with HIV gp120 CAAN, 1.06 A450.

B3: 1.32.36-1 (antibody, human IgG1, kappa)
heavy: B1 heavy with L5V, A10E, S105T
light: B1 light
As to B3, the “ELISA (A450)” value came out at 0.92 A450 with HIV gp120 Bal and 0.64 A450 with HIV gp120 CAAN.

B4: 1.5.1-1 (antibody, human IgG1, kappa)
heavy: B1 heavy with L5V, E23K
light: B2 light
Turning to B4, the “ELISA (A450)” value with HIV gp120 Bal was determined as 0.92 A450; with HIV gp120 CAAN, 1.07 A450.

B5: 1.33.36-1 (antibody, human IgG1, kappa)
heavy: B1 heavy with L5V, A10E, T12K, E23K, S69T, V97T
light: B1 light
Take B5: the “ELISA (A450)” value in the assay with HIV gp120 Bal is 0.94 A450; with HIV gp120 CAAN, 0.82 A450.

B6: 1.2.2-1 (antibody, human IgG1)
heavy: B1 heavy with A10E, T12K, Q118M
VL: DIQMTQSPSSLSASVGDTVTITCQANGYLNWYQQKPGKAPKLLIYDGSKLERGVPSRFSGRRWGQEYNLTINNLQPEDIATYFCQVYEFVVPGTKVDIK
As for B6, the “ELISA (A450)” value in the assay with HIV gp120 Bal was found to be 0.91 A450; in the assay with HIV gp120 CAAN, 0.8 A450.

B7: 1.31.36-1 (antibody, human IgG1, kappa)
heavy: B1 heavy with L5V, A10E, V97T
light: B1 light
With B7, the “ELISA (A450)” value worked out at 1.06 A450 in the assay with HIV gp120 Bal and 0.9 A450 with HIV gp120 CAAN.

B8: 1.36.36-1 (antibody, human IgG1, kappa)
heavy: QVQLVQSGAEVKKPGASVRVSCKASGYNIRDYFMHWWRQAPGQGLQWVGWINPKTGQPNNPRQFQGRVTMTRHASWDFDTFSAYMDLSRLRSDDTATYFCARQRTDYWDFDVWGQGTMVTVSSASTKGPSVFPLAPSSKSTSGGTAALGCLVKDYFPEPVTVSWNSGALTSGVHTFPAVLQSSGLYSLSSVVTVPSSSLGTQTYICNVNHKPSNTKVDKKVEPKSCDKTHTCPPCPAPELLAGPDVFLFPPKPKDTLMISRTPEVTCVVVDVSHEDPEVKFNWYVDGVEVHNAKTKPREEQYNSTYRVVSVLTVLHQDWLNGKEYKCKVSNKALPLPEEKTISKAKGQPREPQVYTLPPSREEMTKNQVSLTCLVKGFYPSDIAVEWESNGQPENNYKTTPPVLDSDGSFFLYSKLTVDKSRWQQGNVFSCSVLHEALHSHYTQKSLSLSPGK
light: B1 light
Regarding B8, the “ELISA (A450)” value was determined as 1.12 A450 with HIV gp120 Bal and 0.34 A450 with HIV gp120 CAAN.

B9: 1.2.1-1 (antibody, human IgG1, kappa)
heavy: B1 heavy with A10E, T12K, Q118M
light: B2 light
Regarding B9, the “ELISA (A450)” value came out at 0.93 A450 with HIV gp120 Bal and 1.01 A450 with HIV gp120 CAAN.

B10: 1.3.1-1 (antibody, human IgG1, kappa)
heavy: B1 heavy with Q3S
light: B2 light
For the molecule B10, the “ELISA (A450)” value with HIV gp120 Bal worked out at 0.97 A450; with HIV gp120 CAAN, 0.94 A450.

B11: 1.4.1-1 (antibody, human IgG1, kappa)
heavy: B1 heavy with L5V
light: B2 light
Take B11: the “ELISA (A450)” value in the assay with HIV gp120 Bal turned out to be 1.04 A450; with HIV gp120 CAAN, 0.96 A450.

B12: 1.35.36-1 (antibody, human IgG1, kappa)
heavy: B8 heavy with A83F
light: B1 light
B12: the figures for the “ELISA (A450)” value in the assay with HIV gp120 Bal and with HIV gp120 CAAN were 0.85 A450 and 0.67 A450, respectively.

B13: 1.34.36-1 (antibody, human IgG1, kappa)
heavy: B1 heavy with L5V, A10E, T12K, E23K, S69T, S105T
light: B1 light
For B13, the figures for the “ELISA (A450)” value with HIV gp120 Bal and with HIV gp120 CAAN were 0.94 A450 and 0.71 A450, respectively.

B14: 1.31.35-1 (antibody, human IgG1, kappa, V domains shown)
VH: QVQLVQSGAEVTKPGASVRVSCEASGYNIRDYFIHWWRQAPGQGLQWVGWINPKTGQPNNPRQFQGRVSLTRHASWDFDTFSFYMDLKALRSDDTATYFCARQRSDYWDFDVWGSGTQVTVSS
VL: DIQMTQSPSSLSASVGDRVTITCQANGYLNWYQQKPGKAPKLLIYDGSNLETGVPSRFSGSRWGQEYTLTISSLQPEDIATYFCQVYEFVGPGTNLDIKR
As to B14, the “ELISA (A450)” value with HIV gp120 Bal worked out at 0.9 A450; with HIV gp120 CAAN it was 0.77 A450.

B15: 1.32.35-1 (antibody, human IgG1, kappa, V domains shown)
VH: B14 VH with T97V, S105T
VL: B14 VL
Take B15: the “ELISA (A450)” value with HIV gp120 Bal is 0.89 A450; with HIV gp120 CAAN, 0.59 A450.

B16: 1.35.35-1 (antibody, human IgG1, kappa, V domains shown)
VH: B14 VH with T12K, E23K, I34M, S69T, L70M, K88S, A89R, S105T, S115Q, Q118M
VL: B14 VL
B16: the entries for the “ELISA (A450)” value in the assay with HIV gp120 Bal and in the assay with HIV gp120 CAAN were 0.88 A450 and 0.67 A450, respectively.

B17: 1.36.35-1 (antibody, human IgG1, kappa, V domains shown)
VH: QVQLVQSGAEVKKPGASVRVSCKASGYNIRDYFMHWWRQAPGQGLQWVGWINPKTGQPNNPRQFQGRVTMTRHASWDFDTFSAYMDLSRLRSDDTATYFCARQRTDYWDFDVWGQGTMVTVSS
VL: B14 VL
Consider B17, for which the figures for the “ELISA (A450)” value with HIV gp120 Bal and with HIV gp120 CAAN were 0.89 A450 and 0.36 A450, respectively.

B18: 1.33.35-1 (antibody, human IgG1, kappa, V domains shown)
VH: B14 VH with T12K, E23K, S69T
VL: B14 VL
Regarding B18, the figures for the “ELISA (A450)” value with HIV gp120 Bal and with HIV gp120 CAAN were 1.03 A450 and 0.81 A450, respectively.

B19: 1.34.35-1 (antibody, human IgG1, kappa, V domains shown)
VH: B14 VH with T12K, E23K, S69T, T97V, S105T
VL: B14 VL
B19: the “ELISA (A450)” value in the assay with HIV gp120 Bal amounted to 0.94 A450; in the assay with HIV gp120 CAAN, 0.77 A450.
